{
  "source": "patent US12497593B2",
  "about": "“Generation of hematopoietic progenitor cells from human pluripotent stem cells” (Wisconsin Alumni Research Foundation, priority 2018, dated 2025)",
  "molecules": {"B1": {"name": "BMP4: Bone Morphogenetic Protein 4, added at 50 ng/ml to high density culture (protein, UniProt P12644 293-408, looked up)", "Bone morphogenetic protein 4": "SPKHHSQRARKKNKNCRRHSLYVDFSDVGWNDWIVAPPGYQAFYCHGDCPFPLADHLNSTNHAIVQTLVNSVNSSIPKACCVPTELSAISMLYLDEYDKVVLKNYQEMVVEGCGCR"}},
  "test_system": "human pluripotent stem cells provided at high cell density",
  "assay": "Hematopoietic cell formation in high cell density differentiation culture",
  "assay_type": "cell-based",
  "conditions": "with 50 ng/ml BMP4",
  "method": "FIGS. 1A-1F concern hematopoietic cell differentiation in accord with the invention. […] Cells in high cell density methods of the experiments depicted in this figure were plated at 1.1×10^5 cells/cm^2. Cells in low cell density methods of the experiments depicted in this figure were plated at 1.8×10^4 cells/cm^2. The photographs of FIG. 1B show cell morphology of cells of each culture at day 10. […] The hematopoietic cells could be cryopreserved at day 10 (90% FBS+10% DMSO) and hemangioblasts can be cryopreserved at day 6.\nFIG. 2A-2D show Notch and YAP signaling in the low and high density cell cultures. FIGS. 2A-2B show immunostaining of YAP and NICD1 (Notch intra-cellular domain). […] Cells cultured at high density were treated with or without 10 μM DAPT (a Notch inhibitor) from day 2-10.\nFIGS. 3A-3E show BMP4 signaling in the low and high density cell cultures. […] Cells were cultured at high density with or without 50 ng/ml BMP4. […] Cells were cultured at low density with or without LDN (a BMP signaling inhibitor).\nCell-cell contact regulates arterial endothelial cells and hemangioblast cell fate determination—Endothelial-to-hematopoietic stem cell transition occurs in aorta-gonad-mesonephros region. We therefore investigated whether human pluripotent stem cell-derived arterial endothelial cells can be reprogrammed into hematopoietic stem cells. […]",
  "data": [
    {"molecule": "B1", "values": [
      {"measurement": "hematopoiesis (total hematopoietic cell number, cell morphology at day 10)", "value": "promoted hematopoiesis"}
    ]}
  ]
}
